Experimental findings from US10174359 (JAPANESE FOUNDATION FOR CANCER RESEARCH, dated 2019) are described below.

The target in this experiment is T1, myc-tagged mouse separase, wild-type (WT) (mouse, UniProt P60330 1-2118).
T1 construct: Studied in HeLa cell extracts by co-immunoprecipitation and immunoblot; also called wild-type separase; wild-type mouse separase; not shown: myc tag
Put plainly: immunoprecipitation with securin from anaphase cell extract, immunoblot for separase-myc (FIG. 7A). As to the method: Typically, the cell extracts are mixed with […] of agarose beads conjugated to anti-myc tag (manufactured by MBL), or protein A beads (manufactured by Bio-RAD) coupled to the desired antibodies, and incubated for 2 hr at 4° C., then washed three times with IP buffer and three times with TBS-T (150 mM sodium chloride, 20 mM Tris pH 8.0, 0.05% (v/v) Tween 20) and then subjected to analysis.
In the wild-type mouse separase replaced cell and SA mutant mouse separase replaced cell, the cell cycle arrest by Monastrol, was cancelled. Forty minutes after cancellation of the cell cycle arrest by Monastrol a cell population enriched in anaphase cells was prepared. Then, a cell extract was obtained and subjected to immunoprecipitation with cyclin B1 and securin to analyze the presence or absence of separase-myc. As a result, separase having a small molecular weight, i.e., cleaved separase, is observed.
On the technique in general: A western blot detects proteins with antibodies after separation by electrophoresis.

T1 sequence (P60330 whole entry): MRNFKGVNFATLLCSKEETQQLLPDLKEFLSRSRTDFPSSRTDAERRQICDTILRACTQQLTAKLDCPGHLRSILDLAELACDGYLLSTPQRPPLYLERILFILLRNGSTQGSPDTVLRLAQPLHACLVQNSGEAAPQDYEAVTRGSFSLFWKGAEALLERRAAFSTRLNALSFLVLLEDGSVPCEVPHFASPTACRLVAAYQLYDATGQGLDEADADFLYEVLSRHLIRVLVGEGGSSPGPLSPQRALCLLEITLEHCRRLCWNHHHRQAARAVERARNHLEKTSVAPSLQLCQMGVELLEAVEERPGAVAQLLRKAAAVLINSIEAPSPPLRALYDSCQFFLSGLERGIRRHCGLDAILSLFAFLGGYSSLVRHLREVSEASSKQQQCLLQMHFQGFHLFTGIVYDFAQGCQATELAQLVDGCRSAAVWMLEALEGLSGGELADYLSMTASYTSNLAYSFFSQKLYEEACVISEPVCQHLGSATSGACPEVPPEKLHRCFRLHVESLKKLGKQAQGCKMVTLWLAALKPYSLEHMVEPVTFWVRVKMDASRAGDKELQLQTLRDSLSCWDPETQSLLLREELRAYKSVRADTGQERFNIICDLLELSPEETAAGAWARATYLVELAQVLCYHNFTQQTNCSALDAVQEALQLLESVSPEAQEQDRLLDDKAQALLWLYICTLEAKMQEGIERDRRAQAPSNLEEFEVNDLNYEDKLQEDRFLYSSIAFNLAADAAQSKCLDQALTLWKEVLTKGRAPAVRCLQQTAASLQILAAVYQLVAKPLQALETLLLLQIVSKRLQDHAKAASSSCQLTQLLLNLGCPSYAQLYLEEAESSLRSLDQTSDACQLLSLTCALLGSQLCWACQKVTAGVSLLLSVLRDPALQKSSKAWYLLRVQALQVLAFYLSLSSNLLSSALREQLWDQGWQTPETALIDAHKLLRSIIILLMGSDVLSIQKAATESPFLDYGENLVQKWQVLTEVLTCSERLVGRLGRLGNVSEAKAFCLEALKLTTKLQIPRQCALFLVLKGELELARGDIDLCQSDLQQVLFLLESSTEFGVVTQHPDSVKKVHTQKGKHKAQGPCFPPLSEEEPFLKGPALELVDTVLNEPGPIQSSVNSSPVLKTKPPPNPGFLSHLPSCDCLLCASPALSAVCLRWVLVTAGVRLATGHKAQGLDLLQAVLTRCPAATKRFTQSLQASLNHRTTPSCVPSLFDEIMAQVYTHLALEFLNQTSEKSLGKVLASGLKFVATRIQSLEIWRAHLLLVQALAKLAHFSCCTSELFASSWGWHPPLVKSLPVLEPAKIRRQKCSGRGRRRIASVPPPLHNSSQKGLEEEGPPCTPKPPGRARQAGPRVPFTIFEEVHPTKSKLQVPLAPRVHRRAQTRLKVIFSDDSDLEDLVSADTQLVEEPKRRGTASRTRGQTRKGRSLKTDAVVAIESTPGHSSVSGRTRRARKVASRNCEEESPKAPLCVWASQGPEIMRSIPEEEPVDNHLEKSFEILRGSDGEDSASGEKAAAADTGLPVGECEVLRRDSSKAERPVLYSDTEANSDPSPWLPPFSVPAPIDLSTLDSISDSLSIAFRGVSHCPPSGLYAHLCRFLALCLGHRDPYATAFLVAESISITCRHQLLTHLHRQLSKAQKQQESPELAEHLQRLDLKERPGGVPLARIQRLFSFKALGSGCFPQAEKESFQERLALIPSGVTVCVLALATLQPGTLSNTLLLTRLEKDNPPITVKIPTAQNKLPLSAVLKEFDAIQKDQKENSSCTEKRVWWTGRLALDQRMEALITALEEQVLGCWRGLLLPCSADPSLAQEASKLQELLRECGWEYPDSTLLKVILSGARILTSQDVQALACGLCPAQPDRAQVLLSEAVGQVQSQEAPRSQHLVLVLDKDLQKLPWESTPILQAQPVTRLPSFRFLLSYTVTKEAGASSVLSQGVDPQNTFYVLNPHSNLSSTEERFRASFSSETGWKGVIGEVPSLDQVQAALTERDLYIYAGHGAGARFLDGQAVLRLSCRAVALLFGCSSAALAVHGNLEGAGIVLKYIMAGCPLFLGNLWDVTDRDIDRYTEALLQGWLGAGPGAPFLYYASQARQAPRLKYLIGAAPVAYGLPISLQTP

B1: securin (other, UniProt O95997 2-202, looked up)
chain: ATLIYVDKENGEPGTRVVAKDGLKLGSGPSIKALDGRSQVSTPRFGKTFDAPPALPKATRKALGTVNRATEKSVKTKGPLKQKQPSFSAKKMTEKTVKAKSSVPASDDAYPEIEKFFPFNPLDFESFDLPEEHQIAHLPLSGVPLMILDEERELEKLFQLGPPSPVKMPSPPWESNLLQSPSSILSTLDVELPPVCCDIDI
notes: Endogenous protein in HeLa cell extracts
With B1, the binding result was “binds”.
